This note sets out measurements from the supplement of paper PMC12636428.

Some results are limits rather than exact numbers.

For this data set, the system named is Saccharomyces cerevisiae. The data set can be described thus: transcriptional activation domain activity (GFP:mCherry ratio, weighted mean of sorted bins, harmonized to initial dataset scale) (arbitrary fluorescence ratio units); higher = stronger transcriptional activation. As to conditions: beta-estradiol 1 µM; induction time 4 h. The method, boiled down:
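Barcoded tiles were sequenced after cells were sorted into 8 bins by GFP:mCherry ratio. Before sorting, cultures had been diluted 1:5 into SC with 1 uM beta-estradiol and held for 4 hours at 30 °C. The tiles were fused to an estradiol-inducible synthetic transcription factor and integrated at URA3 in yeast diploids carrying a GFP reporter. Activation activity is the read-weighted mean of bin median fluorescence, averaged over barcodes and linearly mapped onto the initial dataset scale, and tiles under 50 reads were left out.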

As to “SSSSQTSTSASVLLVFGSDERYVKAAGDLLKSRLNVKGGGKGTRWSGKYTGVW”, the “transcriptional activation domain activity” value is 31200.
For “SSSSRGKGGKEKGKGKVAGEGDGDGEEEQGEQQQQQQTSLVEAVARARDACRL” the value was 27200; for “SSSSSRVACGQVVKCGSEVVATSNGAYPVQEGDSCSRARRQSTGSVVNRTTRP”, 26400.
Regarding “SSSSSSREDGEASDASSSSRDSRRRRRRSTSRDKRPAAESKAATEPAAAKPRN”, the “transcriptional activation domain activity” value worked out at 30000.
The result for “SSSSSSSSESGSESDSGSDDGSASGSGDNSSTSSESESESDSGSEVDEKNNKN” reads 33900; that for “SSSSTPSAFSSATPSSLFGSGASSTAKPFGSAASPSPFGAAKSSPSLFGSGGG”, 69900; that for “SSSTVVLAFGTDEKKIKEVGDALKTKLSVKGGGKGPRWSGKFAGVWKEDSAIE”, below 6570.
Regarding “SSTDPTVEPDAPGGSEAEEPAKSETKESPAKKKVVEEEEEEEQKKAEPNGSSS”, the “transcriptional activation domain activity” value turned out to be 30700.
As for “SSTNPGTESAKPEKPKRAPRQKASSKKADSKPKRTTARSKKAVKLAAEKLLSP”, the “transcriptional activation domain activity” value was 15600.
Turning to “SSTWFEPLENIISSASSSSIGSPIEDQFISSNNEESALFPTDQFFSNPSSYSH”, the “transcriptional activation domain activity” value stood at 84600.
The result for “SSVVLFVFFLLFLLFSLFFYPTWLLPCLIFLLNDYLLFFLLFFCRVSCSFAPL” reads 45800.
The result for “SSWIKWVFLFARYFPLLAGLCGRIIDSIVLYKHPIPIPLNALRIWYICQVLII” reads 59300.
The result for “STAARTHGSKRSRDEEDGEGEERAKKRSRSEERVNTTRETRATRATRATSARP” reads 31100; that for “STACILLILVRYLGLIALVLNIIGFFSHEFTMESCQYYWRFMPIMQCFASWAS”, 61800.
As to “STALRTWPGLMYLSMYNFRAIKSLVASLMLPNQQARDIIIVLLYSLLRIKSPA”, the “transcriptional activation domain activity” value amounted to 65100.
For “STARICQMYHWTGNVAIWTHCAILMHPHTIVLWHIWRWDSSWSQASYYFIFWI” the value was 37000.
Consider “STARKPRKKKEAEKTVDGAEDEITEETQKPKRKASTKRTSRKTTTDKEETTAT”, for which the “transcriptional activation domain activity” value amounted to 24200.
For “STATESGLAARSKDQIFCIPVPGQPWVDVRLRTLSESINSLLLLATLIKRCPV” the value was 59300.
For “STDALLARLVGHLHINPVSQKLVVAFDKIATCLQEVRACIVQRILPFAQRYKQ” the value was 62400; for “STFGKYVHCRLLEGNTGMKIPQAAVIALIFRFLEKLVNTRLAVISRRWAMVTL”, 67000; for “STGGARKGSAAPSKTSSSNISGRDKEKSRSKEKLGSQSALAAGSTPAPKAAAA”, 47900.
As for “STGLKPQDPSSDGLRKLALLNILLSGEEDVVSTIPAQRLVFLVKHLLECLKSD”, the “transcriptional activation domain activity” value amounted to 24800.
As for “STHRIRCRNAEEPGGRARCRLVVGRRAPAGARDEVPSHFSEEELVASVVGVVV”, the “transcriptional activation domain activity” value came to 73000.
The result for “STHSVSLLVVWALRRIRVNLVKLAGITYMVPFPLLLVLVMIGSSSYLSWIFWI” reads 64900; that for “STIHNLAELVFLEELCGFCCFSMRFVVFLDLFGTIILPATCVYIGYLIYVIAT”, 44600; that for “STIHNLFEVVLLPDLCGFCCFSMRFVVLVDLVGTLTLPVTVVYLIYLIYVIAS”, 54400.
On to “STKVLLRVFIPVAGYFWISLNYSLVSLAFHVKFNNYFGNIGFFIWWMLNWLTM”, for which the “transcriptional activation domain activity” value came out at 57300.
The result for “STLQLASSFDITVNGPPVLCQGISITACASSSLVVALSWISCMIMLMYFFSLL” reads 52800; that for “STLVFLKLYSSLMLGTCLTSILCFSLPDFFPGKRGFAIGLCLYHSICSTVLFQ”, 63900; that for “STMHSNIGYIATLCLNLTLLLPLKDHPMVNNYVLVLVNSYWVLTGIWWFIFQQ”, 35000.
The result for “STPAAKPTPEPGQQPRKRGRPRIIRDDPPEGGGPPAAKKAKRGRKPKVVAPPA” reads 27400.
For “STPAPTTAAGGKKEAEKPEEKSEEKPEEKPAEKPAEKPAEKPAEVKPEEKAIQ” the value was 25400; for “STPSAFGAQPTQTTGAFGQPAQTSAFGAQPATGGFGNTGSAFGQARPSAFGST”, 16900.
On to “STQCSCEDESCPCVNCLIHRSEEELNSYIQQSGVPLTNIGEAQITDKMMDYLD”, for which the “transcriptional activation domain activity” value is 56900.
As to “STRNYKLYIGNTVFFCGGRFLTSRAFWAFGLSLFLINMPAILFIIFSCPWLWY”, the “transcriptional activation domain activity” value stood at 55900.
The result for “STSIRWEIFYARFFIMMLFYTIVGLFLTIACFSLRYHLFIWTVFSPKLLFFFV” reads 48800; that for “STTKSICYVLRHLMITYVFYLSATGIDDLTVLIGNHSHNMIRTIVRSALWISY”, 39900.
For the sequence “STTLPAVDNNNLFDAVASPLADPLCDDIAGNSLPFDNSIDLDNWRNPEAQSGL”, the “transcriptional activation domain activity” value turned out to be 71400.
For “STTRQQRASLPLIHDIESFANDSVMANPLSDSASFLSEENEDDAFGALNYNSL” the value was 51500.
For “STTSDGAPGSEVPLKRRPGRPKGSKTKKRKIDTAPVPIAAAGTQPAASSTTAP” the value was 35700; for “STTYYVLSLITFSSFPSIMVSYYSLLFSFFFISLCFLFPLPFVSSLFSHLILF”, 40300.
Regarding “STVHNLCELVFLPELFGFCCFSMRFFVFIDLLGTLILPATVVYLLYLIITVAT”, the “transcriptional activation domain activity” value is 62500.
For “STVHNLVELMPLQQLCGFCCFSMRFVVFLDLLSTVVAPVIVVYIGYLIYILAY” the value was 56100; for “SVASEKGADDSAEEDHEHEHRHKKRRHREHREREHRSSRHKHRSSRRHAEEVD”, 21000; for “SVASMNSNYLLPVNSHGYKHISNLDELDDLLSLTYSDNNLLSASNNSDFNNSN”, 88400.
For the sequence “SVCHRAGEGDEEVEDEEEGEESDEEEEDGDDEKTADGGRAASARKGRDAGAGA”, the “transcriptional activation domain activity” value was determined as 13000.
For “SVCNDGNAGDFLYDCFGEFNNQPFNWDVLSPRVAANPYYSFDDFGSSLFILFQ” the value was 106000; for “SVEDAADTTVSTDLKAADDATTEAAADDDAPRKKHKKSKSKKDKHRRAAADAE”, 11600; for “SVEVEMEDAPKPKRRGRPPGSGKKKAPAGEDAAAAAPEKKKRTPAKKASAGSA”, 42700.
For “SVGASSGSGSGSGKRRGEEGEEGDEGEEGEEGDEGEEGDEEEGVEELVQGEGQ” the value was 7800; for “SVKHIITLFDDVRQNLAHAGLVALLLAQPHMIVLLTDVWLHMFRYLSAFEITI”, 52100.
For “SVKTKAAGKGKPKTTNDKATKSSEPRKAAKVSDDETKPTSNGAASAKAGGERQ” the value was 23600.
Turning to “SVLHTMYVVAIKDSSAWYGDSPADLCMIGFWNLVIVWLKLLIPWRFFRLWAIL”, the “transcriptional activation domain activity” value was 55900.
For “SVMKTLLDERRTSGTQPTTAPVAAEEPRLENVALENFVSIGWKLLDDSELGWY” the value was 71200; for “SVRHWELRVRAKYGRVLCRFLAQIEFDPFLLSDSSKRAILTVLRAVADIMVEC”, 42400.
